“And” between values parts separate entries of the source, which are not always exact repeats. Identical values can stand only once.
What was measured:
[1] = biological target: KHC + LC (Kinesin-1 HC-LCs complex) (Drosophila) (UniProt P17210); assay: BLI
[2] = biological target: KHC^Δh2 + LC (Drosophila) (UniProt P17210); assay: BLI
[3] = biological target: HALO::PLP^584-1811 WT (purified from Sf9) (Drosophila); assay: mass photometry

For “HALO::PLP^584-1811 WT (purified from Sf9) (domain or fragment)”, the Kd [1] was 1700 nM, the Kd [2] was 65 nM and the stoichiometry N [3] was 2 and 4.

From publication PMC9361567
